Reference: the NTF2 design screens of Basanta et al. (2020)

Test: protease stability score; higher = more stable; yeast display proteolysis, trypsin and chymotrypsin;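 also: relative to predicted unfolded state with 0 unfolded-like and 1 meaning tenfold more protease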

| Sequence | protease stability score |
| --- | --- |
| DEDTHWIRDALRRYEEMLRTGDEDLFRRLFDPHVRVEINGQENHGMESILKLYRDLVEHLGIKHVQEVELEDVNMIDGVIILHIRVRVRFDGKHETIRMNVVAYKVNGQWRLHELKEG | 1.47 |
| DEDTHYARHIMELIIRNFITGDEDDLLRLMDPNTRLHINGVDNHGREEIKRDLERWWHRYPNITVIIRVEHMTAIDGKAHSEMRVQIHYNGVTYSRETRVILIVINGRLHSVEFRID | 1.11 |
| DEDTKASELAIEILIKILLTGDEDSLNHLFDPNVRLEVGDKQMHGMESMVKFQRHWRVNHTIVKRMEIINIGDKMHIHLVGHINGDFNGKTSEHESHVHILNEKVNGRWLIRSMEIEIR | 1.62 |
| DEDTKEADDFTKIWAKSVETGDEDMLKHLADPHVRVEIGDKVFIGRHFWLKVLRHIRVESVHVEDYKVQGEKVEYHVRFEVDINGQKVESTRRMIVRKVNGRWILETVILE | 1.49 |
| DEDTKHDEEMFRLVLHLLRTGDEEKLTELADPNVRLEVDIDGRRDTYHGREEMLKWLQELLKRYKNMTIKVHRVSVVNGKAHMDGITKVGDKEFKELRIWVVIDGKIRTIKIEIL | 2.27 |
| DEDTKIIKEMLDEMVHATLTGNEDLLRELVDPEVRIRVGDKEKHGWEFLFHMLKHLRIDRSEITIHSIRVVNGRVEVDGELRIIFTIGDKHIEFSTRVHIILEKVDGRWRVQALLFH | 0.688 |
| DEDTKIVEEAIRYHKHNIETGNEEYMDKLADPNTRLEINGVEFHGRESYNHWMRRVLEHWRFHDIKIDSVDVFNGRVRFYGRRIVKIGEFTMIFEITYISTKFNGRWILEEEENR | 0.564 |
| DEDTKKAEEVLRMFDEAFRTGDEDILRELMDPNVRYVINGREFHGREEVTNAMRELHHRFDHFKSTHIKDHKIQGDKMDVHSTLTYHVNGKDIHVDSREVWVKVNGKWHLRKIIIH | 2.24 |
| DEDTKLAKEAWRHLMENLHTGNEEIILHLVDPNAKFRYGEFEHHGRESLKWFRKRYDHIEVTHVEFHHVQVQGDKLIYHGTLEMSFEQGNKHEHWEYNVLLISRKINGRWIVKSIEVN | 0.953 |
| DEDTKLAQKMSKLLNHAIHTGDEKILRQLLDPHVRVHIGDKEHHGWKEYEKIMQEWRFEHVETEHVSLVNGRLHIDSHIVGNIDGRRTEVETHIIIKKFDGRWIDTEFHMK | 0.583 |
| DEDTKLMEEVIRLHMELLKTGNWDELLHMLDPNAKFEAEGRDKHGWHNFLREYKHFYEELGFKHSRVHHVRVQGDKLEMDLRINVGDKEFETNLEVLKVNGRWLIKFVRID | 1.58 |
| DEDTKLSKDAIRTFLESMVTGDEHILHRLADPNVKYSQGDKEYHGWEYAREFWSRVKNIRFHLKHYEVYGNKVHIEGELHVDGRHFEVHIVIIKFDGRWKIESHEIK | 1.19 |
| DEDTKLVEEFLRDWLRALLTGDEEHLHKLLDPNTRVEINGQEFHGREMEVELMRHWRLDHIDIREIRITIIGNKVENHVRGRVDGEFDGRKINRETKLVNYVVKVNGRWLFHSMELRTH | 1.35 |
| DEDTKMSEEALRILVEIWRTGDEDRFLELADPHTRILINGRELHGMEFFVTWLRKVKNLKIERIQLDHVRFIDGRAELETTIRLRYGDKHDDLTFKFISDKFDGRWVLSEIIII | 2.15 |
| DEDTKRAEHIMRMFIHSMLTGDEKTTHELLDPEARVNINGVDLHGRETLLEHHHRWLHELRIEDMHTEHYEVQGDYVHLHTREVVVVDGRRIELTTTFLLLKVDGRWVWTHIHVK | 0.997 |
| DEDTKRVEELMELWIEIWRTGDFKMLHHLLDPNVLLHVDIGDKHINVHGREEFTRFLEEELRKVKNAREEINDEKLVGDKVILDYSIHVNGRTLRVHLEIILIDGRMKVSRVKVK | 2.14 |
| DEDTKTAWRMLHLSHKAIETGDEHLIKHLFDPHVRIHIDGVDLHGREELLTHLRHWRMVVEDEVSKDSKSYGDKITLDGHVDLTFEYNGRRVRVIFDTRIIIVKFNGRWLIKTIHFE | 0.512 |
| DEDTKVVEEILRLLVEIWKTGDEHTWKRLLDPHARMDVDGRELHGREEIARHVKEETEKLGANVHNHVEIHHMEIIGNKVIIDGTVDGIVNGRITRIRVEVFWLVFDGVIKEEEHRVL | 0.955 |
| DEDTLIAKEIAELIIHALLTGDEDILKRLMDPTVKNDVNGVEFHGREILYKLLLEMRIHRVEYTHIDMRIYNGRAEVRIHGKIHVTINGVHDDKERRIDIIIVKINGKWTIESFVVHRL | 2.53 |
| DEDTNIEKMASQRIFHDIMTGDFQSLWEMFDPNARLIQGDWHSHGRENIIIYYMELVEKLGVTNVRFRLEDEDSQGDKVIIHSSLNINGRHFKLDIHAVKINGRWFIREVDVRLH | 1.4 |
| DEDTNLLREFVRLLSEALKTGDEDTLRTLFDPHVRFIIGDKDLVGREAFHFFLERFDVIRSVELHNYDHYGDKVTLDTRQVIHVNGQDIRIHSHIVVTKVNGRWRLESVKFK | 1.25 |
| DEDTQRREEWHHQFIMSMRTGDERLLLELVDPNYRSDINGVELHGWEFAEKLMRDAGVKHYELKRVHHIGDKMIVDGVTTFNGKERRVIFIARKIDGRWLITSSHFE | 1.31 |
| DEDTQTLEKIWRDFVRALRTGDEDHLSRLLDPNTRIDINGKESHGRERAEEVLREMFERIDHFHRVEIHDRREVNGRVNLDTRRDVEVNGVRDMYTTHLIILKVDGKWSMKTIELK | 1.33 |
| DEDTRDAEHISRMMLHAFITGDERLIEKNADPDTRIDVNGVDYHGREEMVKLFKRWLDELGVNHMEIKETTTHVYDGRVEVVLHLHVDYNGRRHHLIIIIINDKFDGQWRIRSLEFEER | 1.37 |
| DEDTRDAEQFLKELLHNQITGDEESEDKLADPNVRIIINGREIHGRETWIKWRRQARITFEDQRVHSIHMIGDKLVLKIEIDGNLSFNGREIRDTVEIEIVVTKVNGRWVLDQVHFK | 1.63 |

| Sequence | protease stability score |
| --- | --- |
| DEDTRDTEIAFELLLRHMYTGDWHLVERMLDPNVRVHQGDFHTVGWEDFVRISLEARLHDMRIHQVRSQGDFVEIDGHVDFEINGKRIRVRTILIVLKVNGRWFLKSIEIR | 1.23 |
| DEDTRDVDRFLKRLEETLLTGDWNSIRELFDPNVKVIFNGRHRHGWQNMVDILREIRVTDVRMELDDVEQYGDKITIRGRLRFKGEINGKEQDTSLTIEIILIKVNGKWSVNSIEFR | 2.46 |
| DEDTREAEKMYRLFRHLFLTGDWEHTYQLADPHVRTDFNGVEWHGRELALEILLHFLEILGVDHITLKRQEIHIVDGRLLVILHLELRAENHSEDLLIIVIMNKFDGRWHVESEEIKVR | 0.539 |
| DEDTREKRRILEESLHIFETGDWEAMLKNADPNVRSEIHIGDKRLEFHGMRNWLEEWLTRLEKIKNMTFRIHDIRRQGDKVHIDGDLHVNGKHSKVRIELIIVDGVIHTLFFFDH | 0.953 |
| DEDTRESEKMLSEILESHLTGNWRMIRHLADPHVRVEIGDKTYHGRDNLKRIFLDLLEKLGVDHMEFRDIHIRVQGDKLHIHIKVDLIVGDKVDIMQSHIHVEKINGRWYVHLVHWRLT | 0.817 |
| DEDTRIMEELLELTMEHVKTGDESSFRKLADPNVRMEYNGVEIHGREEASELFLEEMERIKNLTLRIKRLHIQGDKVIIYEEYEYGEKSWTVTYEAYKINGRWLMESIRFG | 1.13 |
| DEDTRKIYHWAELIVELLMTGDEDILHELADPDVKVHINGVTLHGREEADKFLEEWLRRFKNIQIRIRRITVINGRVDVESEVNVGDKRKDSRIHATVVNGRWKIISMDDH | 1.42 |
| DEDTRLAEDELQLWVEHVETGDEDTLFELLDPNVRLHIGDKELHGREAWVQWLVEARVEHVHIRDIKVVDGKVLITGRIIFRVGDKRVDTDHHMIIEKINGRWVLHEIHFH | 2.07 |
| DEDTRLEKEFLRILEEILKTGDEERLRRLVDPNTRLEVGDKRFHGWDAVHYMLRIFGIERIHFELTSRRRVNGRLELDGILRFNGRDHDTHIIIDKINGVWIVREERVE | 2.19 |
| DEDTRMNELFVRLFYELLTTGDEEHIHEMFDPHARLDFDGQQYHGREDAVRKMHELSRRLGIKHIEIREFRKVGDWANLHGKIYVNGQEYELHVILHKVDGRWITRDIRIK | 1.3 |
| DEDTTMLEEMARLLVEMWLTGDEEKIYKLADPDVRLNVNGKDQIGREESEKLRRELLETLGIKHFEVEDLKIRLIDGRVNVHIYGIVKFNGVNVKMILDHHSRKVNGRWRIEHLRIIHI | 1.32 |
| DEDVEDSLRALRELTKSLITGDEDSFRHLADPHARFIWNGKEIHGWEEVVKVVSKILKHLRFDDIILRDIRIQGDKIEFVVTDLVTVGDKHEEVDSRVTIYKVNGRWLLHTIKIR | 1.3 |
| DEDVELFELIFKVMIELLETGNEELLRHLADPHTRVHINGVDFHGMEDWLKFLRHIRIEDIKIRHVSVVNGVMHAETETLMHVNGRDKRVDTRVTAIKINGRWVLKHVQYK | 2.51 |
| DEDVKLALHIIHLFIRALSTGNEELVKTYADPHWRLEIGDKILHGMDEWKEDLKELRIYYHHVTFRDYEIIDGRIIIHTELDGRLEVGDYEQRIRTRTHVFVDKINGRWDITHVEVR | 1.2 |
| DEDVKTLEHLLRLINDINRTGDEERWMHEADPNTLVIYDGVESHGRESVMKLYHKHWEQLRIEEIHIHHIKMQGNKATIHGRLRGEIDGREKSFTIHVHIILINGQIQSITFRIE | 1.02 |
| DEDWHKLEETMRRFAKAMLTGDEDDLRKLADPDYRLDVNGRDLHGMESVKHWLDELRLVINDVKVREVHVIDGRLYLDTQVHSIETINGVEIRFVTETHVVIRKIDGKWINREMSIK | 0.285 |
| DEDYENFERFLKEWSHSVLTGNEDRLMELADPHTRLNINGVDIHGREEVLKFEHEHLKRVKGATLRRVRVRHYSFVNGVAFVETEFDGHINGVDYRLETEMHIHKFNGVWRMKHIEKK | 0.956 |
| DEEALKKLQDILRRNDQDKMNKMIDKDVRVVIGEHEYRGKRNVQEALKREYEHADRFEVKHIEDHGDKLHVDVVLRVDGRDIRFVVVIDVHNGNIRNVKVDFTDEDTQRDFQRQLD | 1.02 |
| DEEDDEAREVHERLVRAFKTGNEELLLKMADPNTRDLFVVDGRTIHLVGWEHWRISLHELRIHDQRIRRSHVIDGRVHSDWEIDVEFNGRRSRKKLEIRIEVVNGVTKSVEFIFR | 1.31 |
| DEEDEALERSRQLLIKILRTGDFEDLDRMLDPHVRIIIGDKEFHGREEAIKWVRERMKRMGAKVVEHFNEDDWRLQGDKIELDGEYNVRQGDKQYHLRVHIISLKVDGKWYFHSLEIK | 0.232 |
| DEEDEANKQIMEHLRKVWDTGDFHTYLRLADPHMRFIVGDKIFHGREEITQLIKELLEKFGADHVELENSRESLVGDKLHLDLHTRYHFNGREIRVDVHNEVTKIDGKWHIKFLSLRIK | 1.42 |
| DEEDEASHLALRLLEFTMKTGDERVSKENFDPNVRIEINGVDLHGWEHLTRILREIRIHDVRIEHSEVQGEKLILHGRMHWRVNGRDIEVETQVHAIKVDGKWRTKRIHFD | 1.49 |
| DEEDEDAHYALKLLLKMVHTGNEEDMQRYLDPNVRVEQGDYHYHGREASEIIKNRFKNVKVKVDHYEIQGEYVNLKVTIDVNGKHKQSTIIVHKFDGRWLIEKIIII | 2.48 |
| DEEDEDARVALEEVMRSQITGDEEKSEKLIDPHVRLEIGDKIYHGRELVVRVEHELGVKHIEPKKVEMQGDWIDLHGVIVYGDKKIHQTLHLLKFNGKWLIKEIRIK | 1.6 |
| DEEDEDIHRLFHELVEALLTGDERTLLRLIDPHARLIIGDKHFHGRELIVKIIYEMLRELRVHSINMHHIDVIGEKVVLDVHIHVEQGDKHRIIRVNIISKKIDGRWLIKSIKVH | 1.16 |
